# Measurements reported in patent US20180105584A1 (published 2018).
# B1: 10901_QRF (Lys274Gln, His435Arg, Tyr436Phe Fc mutant), CHO expressed IgG1 (antibody)
# heavy: EVQLVQSGAEVKKPGASVKVSCKASGYTFSHYYMHWVRQAPGQGLEWMGIINPRYGSTSYAQKFQGRVTMTRDTSTSTVYMELSSLRSEDTAVYYCARDGEVGARDLGWFDPWGQGTLVTVSSASTKGPSVFPLAPSSKSTSGGTAALGCLVKDYFPEPVTVSWNSGALTSGVHTFPAVLQSSGLYSLSSVVTVPSSSLGTQTYICNVNHKPSNTKVDKKVEPKSCDKTHTCPPCPAPELLGGPSVFLFPPKPKDTLMISRTPEVTCVVVDVSHEDPEVQFNWYVDGVEVHNAKTKPREEQYNSTYRVVSVLTVLHQDWLNGKEYKCKVSNKALPAPIEKTISKAKGQPREPQVYTLPPSRDELTKNQVSLTCLVKGFYPSDIAVEWESNGQPENNYKTTPPVLDSDGSFFLYSKLTVDKSRWQQGNVFSCSVMHEALHNRFTQKSLSLSPG
# light: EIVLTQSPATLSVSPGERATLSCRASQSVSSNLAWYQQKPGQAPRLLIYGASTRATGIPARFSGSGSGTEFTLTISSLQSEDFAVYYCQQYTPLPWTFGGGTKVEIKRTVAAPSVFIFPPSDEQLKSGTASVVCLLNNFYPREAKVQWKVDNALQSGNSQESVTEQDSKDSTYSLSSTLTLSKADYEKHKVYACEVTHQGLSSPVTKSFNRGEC
# Target: SpA on the surface of live S. aureus TCH1516 (USA300 MRSA strain) (Staphylococcus aureus strain USA300 …, UniProt A0A0H3K686 37-508)
# Test: cell-based or functional assay
binder,measurement,value
B1,killing of S. aureus in opsonophagocytic killing (OPK) assay with human PMNs,~80%
